Experimental data as given in publication doi:10.1101/815886.

Assays:
[1] = target: CST with CTC1 V967A/S979A/H980A (human, UniProt Q2NKJ3;Q9H668;Q86WV5 1-1217;1-368;1-123, V967A;S979A;H980A;CTC1:); assay: EMSA
[2] = target: CST with CTC1 K743E/R744E (human, UniProt Q2NKJ3;Q9H668;Q86WV5 1-1217;1-368;1-123, K743E;R744E;CTC1:); assay: EMSA
[3] = target: CST with CTC1 R1193E/R1195E (human, UniProt Q2NKJ3;Q9H668;Q86WV5 1-1217;1-368;1-123, R1193E;R1195E;CTC1:); assay: EMSA
[4] = target: CST with CTC1 K1164E/K1167E (human, UniProt Q2NKJ3;Q9H668;Q86WV5 1-1217;1-368;1-123, K1164E;K1167E;CTC1:); assay: EMSA
CST with CTC1 K1164E/K1167E, sequence (Q2NKJ3 whole entry K1164E/K1167E, chain 1 of 3): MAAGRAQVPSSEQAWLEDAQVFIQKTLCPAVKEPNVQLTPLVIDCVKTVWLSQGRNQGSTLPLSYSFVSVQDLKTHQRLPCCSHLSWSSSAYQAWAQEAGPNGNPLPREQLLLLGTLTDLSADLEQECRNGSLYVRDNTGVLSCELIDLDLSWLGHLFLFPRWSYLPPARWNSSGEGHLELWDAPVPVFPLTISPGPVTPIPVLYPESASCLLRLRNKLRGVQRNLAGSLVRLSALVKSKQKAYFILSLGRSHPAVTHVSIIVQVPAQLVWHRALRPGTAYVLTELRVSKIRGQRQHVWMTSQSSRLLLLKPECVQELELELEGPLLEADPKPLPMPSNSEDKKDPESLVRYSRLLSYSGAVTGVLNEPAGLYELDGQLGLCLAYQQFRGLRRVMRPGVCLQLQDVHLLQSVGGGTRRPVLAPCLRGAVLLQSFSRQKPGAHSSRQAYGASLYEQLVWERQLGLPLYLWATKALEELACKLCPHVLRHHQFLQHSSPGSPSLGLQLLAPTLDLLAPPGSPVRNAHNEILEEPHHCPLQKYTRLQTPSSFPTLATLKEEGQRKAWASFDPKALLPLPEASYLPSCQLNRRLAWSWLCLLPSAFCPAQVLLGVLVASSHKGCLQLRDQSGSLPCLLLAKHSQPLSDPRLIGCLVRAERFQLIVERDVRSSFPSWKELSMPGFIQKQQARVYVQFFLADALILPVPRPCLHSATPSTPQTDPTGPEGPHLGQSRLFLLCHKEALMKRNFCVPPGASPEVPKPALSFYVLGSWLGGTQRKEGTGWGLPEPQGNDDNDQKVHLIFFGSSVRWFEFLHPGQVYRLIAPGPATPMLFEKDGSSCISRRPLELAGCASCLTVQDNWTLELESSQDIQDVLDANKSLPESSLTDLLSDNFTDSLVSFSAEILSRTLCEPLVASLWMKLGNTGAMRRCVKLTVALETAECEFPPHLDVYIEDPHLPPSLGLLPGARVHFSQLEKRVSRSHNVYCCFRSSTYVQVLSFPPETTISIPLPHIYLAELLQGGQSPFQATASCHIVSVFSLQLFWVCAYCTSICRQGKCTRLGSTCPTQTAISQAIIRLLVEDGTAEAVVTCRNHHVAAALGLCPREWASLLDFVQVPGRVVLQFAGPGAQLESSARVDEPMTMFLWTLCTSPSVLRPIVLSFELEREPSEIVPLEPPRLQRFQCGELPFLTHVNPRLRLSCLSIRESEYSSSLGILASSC
CST with CTC1 K1164E/K1167E, sequence (Q9H668 whole entry, stated change not applied, chain 2 of 3): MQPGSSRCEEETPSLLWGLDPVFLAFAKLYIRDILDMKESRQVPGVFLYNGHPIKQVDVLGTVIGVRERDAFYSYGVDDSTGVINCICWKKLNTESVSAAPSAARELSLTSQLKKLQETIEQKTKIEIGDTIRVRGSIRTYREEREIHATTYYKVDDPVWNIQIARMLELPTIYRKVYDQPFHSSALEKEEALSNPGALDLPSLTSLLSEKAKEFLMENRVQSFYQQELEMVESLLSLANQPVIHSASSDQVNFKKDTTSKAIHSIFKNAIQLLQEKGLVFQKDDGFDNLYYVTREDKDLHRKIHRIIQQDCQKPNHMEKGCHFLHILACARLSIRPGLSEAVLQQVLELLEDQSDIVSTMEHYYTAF
CST with CTC1 K1164E/K1167E, sequence (Q86WV5 whole entry, stated change not applied, chain 3 of 3): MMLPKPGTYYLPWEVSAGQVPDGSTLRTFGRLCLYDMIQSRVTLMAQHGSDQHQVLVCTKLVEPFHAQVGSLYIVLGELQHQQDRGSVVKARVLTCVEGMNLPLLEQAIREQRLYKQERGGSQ

[5] = target: CST wild type (CTC1-STN1-TEN1) (human, UniProt Q2NKJ3;Q9H668;Q86WV5 1-1217;1-368;1-123); assay: cryo-EM
CST wild type (CTC1-STN1-TEN1), sequence (Q2NKJ3 whole entry, chain 1 of 3): as the sequence (Q2NKJ3 whole entry K1164E/K1167E, chain 1 of 3) above, with E1164K, E1167K counted along it
CST wild type (CTC1-STN1-TEN1), sequence (Q9H668 whole entry, chain 2 of 3): as the sequence (Q9H668 whole entry, stated change not applied, chain 2 of 3) above
CST wild type (CTC1-STN1-TEN1), sequence (Q86WV5 whole entry, chain 3 of 3): as the sequence (Q86WV5 whole entry, stated change not applied, chain 3 of 3) above

CST with CTC1 V967A/S979A/H980A, sequence (Q2NKJ3 whole entry V967A/S979A/H980A, chain 1 of 3): as the sequence (Q2NKJ3 whole entry K1164E/K1167E, chain 1 of 3) above, with V967A, S979A, H980A, E1164K, E1167K counted along it
CST with CTC1 V967A/S979A/H980A, sequence (Q9H668 whole entry, stated change not applied, chain 2 of 3): as the sequence (Q9H668 whole entry, stated change not applied, chain 2 of 3) above
CST with CTC1 V967A/S979A/H980A, sequence (Q86WV5 whole entry, stated change not applied, chain 3 of 3): as the sequence (Q86WV5 whole entry, stated change not applied, chain 3 of 3) above
CST with CTC1 K743E/R744E, sequence (Q2NKJ3 whole entry K743E/R744E, chain 1 of 3): as the sequence (Q2NKJ3 whole entry K1164E/K1167E, chain 1 of 3) above, with K743E, R744E, E1164K, E1167K counted along it
CST with CTC1 K743E/R744E, sequence (Q9H668 whole entry, stated change not applied, chain 2 of 3): as the sequence (Q9H668 whole entry, stated change not applied, chain 2 of 3) above
CST with CTC1 K743E/R744E, sequence (Q86WV5 whole entry, stated change not applied, chain 3 of 3): as the sequence (Q86WV5 whole entry, stated change not applied, chain 3 of 3) above
CST with CTC1 R1193E/R1195E, sequence (Q2NKJ3 whole entry R1193E/R1195E, chain 1 of 3): as the sequence (Q2NKJ3 whole entry K1164E/K1167E, chain 1 of 3) above, with E1164K, E1167K, R1193E, R1195E counted along it
CST with CTC1 R1193E/R1195E, sequence (Q9H668 whole entry, stated change not applied, chain 2 of 3): as the sequence (Q9H668 whole entry, stated change not applied, chain 2 of 3) above
CST with CTC1 R1193E/R1195E, sequence (Q86WV5 whole entry, stated change not applied, chain 3 of 3): as the sequence (Q86WV5 whole entry, stated change not applied, chain 3 of 3) above

Does TTAGGGTTAGGGTTAGGG (ssDNA) [3xTEL] bind [1]?
Result: no binding

Does TTAGGGTTAGGGTTAGGG (ssDNA) [3xTEL] bind [2]?
Result: binds

Does TTAGGGTTAGGGTTAGGG (ssDNA) [3xTEL] bind [3]?
Result: no binding

Does TTAGGGTTAGGGTTAGGG (ssDNA) [3xTEL] bind [4]?
Result: no binding

Does TTAGGGTTAGGGTTAGGG (ssDNA) [3xTEL] bind [5]?
Result: binds
